Measured values as given in publication PMC10591298.

Target: Lys119 (UniProt position 119, IPVLRKDFVVQ)
Test: kinetics
Conditions: 25 °C; 100 mM NaCl in MTEN buffer (said to have minimal change in ionic strength with pH); Steady-state turnover with CdRP (60 µM) above KM; enzyme 0.25-60 µM depending on variant

Substance	pKa
MtIGPS Glu219Gln (Mycobacterium tuberculosis; E219Q)	9.9 ± 0.1
Indole-3-glycerol phosphate synthase (MtIGPS), wild type (Mycobacterium tuberculosis)	9.0 ± 0.1
MtIGPS Glu219Asn (Mycobacterium tuberculosis; E219N)	10.0 ± 0.2
MtIGPS Glu57Asp (Mycobacterium tuberculosis; E57D)	7.7 ± 0.1
MtIGPS Glu219Asp (Mycobacterium tuberculosis; E219D)	7.6 ± 0.2
